Source: patent publication US20140087995A1 (published 2014)
Numbered stars: 1 amine (or outer) side, 2 acyl side, 3 side chain; on linkers, the order of the positions; unused ones are H or OH. Bridge positions count the residues as written; N and C are the ends. Side chains are listed from the residue outwards. Ends that are not written are not given here. * marks the point of attachment. C20 diacid = O=C(O)CCCCCCCCCCCCCCCCCCC(=O)*; γGlu = O=C(O)[C@H](CCC(=O)[*:2])N[*:1]; AEEA = NCCOCCOCC(=O)O

T1: human amylin 3(a) receptor (human calcitonin receptor co-expressed with RAMP-3) (human, UniProt P30988 25-474; O60896 24-148, limits assumed)
T1 sequence (looked up) 1: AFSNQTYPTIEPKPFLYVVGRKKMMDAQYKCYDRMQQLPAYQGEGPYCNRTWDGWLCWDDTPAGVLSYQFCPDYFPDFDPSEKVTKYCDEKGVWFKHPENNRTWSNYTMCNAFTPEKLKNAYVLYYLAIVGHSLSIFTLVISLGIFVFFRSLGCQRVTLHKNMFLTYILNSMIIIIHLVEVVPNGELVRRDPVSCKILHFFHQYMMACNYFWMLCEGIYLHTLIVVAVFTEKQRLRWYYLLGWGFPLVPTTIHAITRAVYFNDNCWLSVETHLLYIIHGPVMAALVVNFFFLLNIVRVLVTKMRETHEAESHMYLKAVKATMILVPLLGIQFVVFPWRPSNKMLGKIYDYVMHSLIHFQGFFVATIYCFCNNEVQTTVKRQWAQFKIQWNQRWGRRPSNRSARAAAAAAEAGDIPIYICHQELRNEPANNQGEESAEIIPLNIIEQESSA
T1 sequence (looked up) 2: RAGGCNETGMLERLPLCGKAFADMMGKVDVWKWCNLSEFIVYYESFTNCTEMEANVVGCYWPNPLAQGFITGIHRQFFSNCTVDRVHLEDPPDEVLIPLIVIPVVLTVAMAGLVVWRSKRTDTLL

T2: human calcitonin receptor (human, UniProt P30988 25-474)
T2 sequence (looked up): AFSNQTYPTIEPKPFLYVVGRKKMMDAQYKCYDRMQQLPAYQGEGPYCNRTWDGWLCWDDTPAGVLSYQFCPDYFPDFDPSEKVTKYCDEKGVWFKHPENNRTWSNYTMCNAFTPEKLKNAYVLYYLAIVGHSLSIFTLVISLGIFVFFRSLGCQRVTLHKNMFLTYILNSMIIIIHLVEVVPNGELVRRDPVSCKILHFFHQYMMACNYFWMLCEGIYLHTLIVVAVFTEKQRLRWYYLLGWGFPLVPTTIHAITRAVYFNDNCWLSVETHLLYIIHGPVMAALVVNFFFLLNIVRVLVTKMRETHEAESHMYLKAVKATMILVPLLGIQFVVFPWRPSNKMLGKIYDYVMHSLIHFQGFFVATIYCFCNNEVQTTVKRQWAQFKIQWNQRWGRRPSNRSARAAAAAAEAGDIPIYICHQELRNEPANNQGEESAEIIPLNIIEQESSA


Experiments:
[1] = biological target: T1, human amylin 3(a) receptor (human …); experiment: cell-based or functional assay
[2] = biological target: T2, human calcitonin receptor; experiment: cell-based or functional assay

Row | hAmylin-R funct. EC50 [1] | Ratio hCT/hAmylin funct. [2] | hCTR funct. EC50 [2] | Binder
1 | 0.285 nM | 3.8 | 1.09 nM | K([γGlu-γGlu-C20 diacid])CNTATCATQRLAEFLRHSSPNFGAIPSSTNVGHNTY-NH2 (disulfide 2-7; N-terminus assumed; SMILES CC[C@H](C)[C@H](NC(=O)[C@H](C)NC(=O)CNC(=O)[C@H](Cc1ccccc1)NC(=O)[C@H](CC(N)=O)NC(=O)[C@@H]1CCCN1C(=O)[C@H](CO)NC(=O)[C@H](CO)NC(=O)[C@H](Cc1c[nH]cn1)NC(=O)[C@H](CCCNC(=N)N)NC(=O)[C@H](CC(C)C)NC(=O)[C@H](Cc1ccccc1)NC(=O)[C@H](CCC(=O)O)NC(=O)[C@H](C)NC(=O)[C@H](CC(C)C)NC(=O)[C@H](CCCNC(=N)N)NC(=O)[C@H](CCC(N)=O)NC(=O)[C@@H](NC(=O)[C@H](C)NC(=O)[C@@H]1CSSC[C@H](NC(=O)[C@@H](N)CCCCNC(=O)CC[C@H](NC(=O)CC[C@H](NC(=O)CCCCCCCCCCCCCCCCCCC(=O)O)C(=O)O)C(=O)O)C(=O)N[C@@H](CC(N)=O)C(=O)N[C@@H]([C@@H](C)O)C(=O)N[C@@H](C)C(=O)N[C@@H]([C@@H](C)O)C(=O)N1)[C@@H](C)O)C(=O)N1CCC[C@H]1C(=O)N[C@@H](CO)C(=O)N[C@@H](CO)C(=O)N[C@H](C(=O)N[C@@H](CC(N)=O)C(=O)N[C@H](C(=O)NCC(=O)N[C@@H](Cc1c[nH]cn1)C(=O)N[C@@H](CC(N)=O)C(=O)N[C@H](C(=O)N[C@@H](Cc1ccc(O)cc1)C(N)=O)[C@@H](C)O)C(C)C)[C@@H](C)O, also called compound 87)
2 | 0.356 nM | 33 | 11.8 nM | K([AEEA-AEEA-γGlu-C20 diacid])CNTATCATQRLANFLRHSSPNFGAIPSSTNVGHNTY-NH2 (disulfide 2-7; N-terminus assumed; SMILES CC[C@H](C)[C@H](NC(=O)[C@H](C)NC(=O)CNC(=O)[C@H](Cc1ccccc1)NC(=O)[C@H](CC(N)=O)NC(=O)[C@@H]1CCCN1C(=O)[C@H](CO)NC(=O)[C@H](CO)NC(=O)[C@H](Cc1c[nH]cn1)NC(=O)[C@H](CCCNC(=N)N)NC(=O)[C@H](CC(C)C)NC(=O)[C@H](Cc1ccccc1)NC(=O)[C@H](CC(N)=O)NC(=O)[C@H](C)NC(=O)[C@H](CC(C)C)NC(=O)[C@H](CCCNC(=N)N)NC(=O)[C@H](CCC(N)=O)NC(=O)[C@@H](NC(=O)[C@H](C)NC(=O)[C@@H]1CSSC[C@H](NC(=O)[C@@H](N)CCCCNC(=O)COCCOCCNC(=O)COCCOCCNC(=O)CC[C@H](NC(=O)CCCCCCCCCCCCCCCCCCC(=O)O)C(=O)O)C(=O)N[C@@H](CC(N)=O)C(=O)N[C@@H]([C@@H](C)O)C(=O)N[C@@H](C)C(=O)N[C@@H]([C@@H](C)O)C(=O)N1)[C@@H](C)O)C(=O)N1CCC[C@H]1C(=O)N[C@@H](CO)C(=O)N[C@@H](CO)C(=O)N[C@H](C(=O)N[C@@H](CC(N)=O)C(=O)N[C@H](C(=O)NCC(=O)N[C@@H](Cc1c[nH]cn1)C(=O)N[C@@H](CC(N)=O)C(=O)N[C@H](C(=O)N[C@@H](Cc1ccc(O)cc1)C(N)=O)[C@@H](C)O)C(C)C)[C@@H](C)O, also called compound 97)
3 | 0.651 nM | 33 | 21.5 nM | K([AEEA-AEEA-γGlu-C20 diacid])CNTATCATQRLANFLRHSSPNFGAIPSSTNVGRNTY-NH2 (disulfide 2-7; N-terminus assumed; SMILES CC[C@H](C)[C@H](NC(=O)[C@H](C)NC(=O)CNC(=O)[C@H](Cc1ccccc1)NC(=O)[C@H](CC(N)=O)NC(=O)[C@@H]1CCCN1C(=O)[C@H](CO)NC(=O)[C@H](CO)NC(=O)[C@H](Cc1c[nH]cn1)NC(=O)[C@H](CCCNC(=N)N)NC(=O)[C@H](CC(C)C)NC(=O)[C@H](Cc1ccccc1)NC(=O)[C@H](CC(N)=O)NC(=O)[C@H](C)NC(=O)[C@H](CC(C)C)NC(=O)[C@H](CCCNC(=N)N)NC(=O)[C@H](CCC(N)=O)NC(=O)[C@@H](NC(=O)[C@H](C)NC(=O)[C@@H]1CSSC[C@H](NC(=O)[C@@H](N)CCCCNC(=O)COCCOCCNC(=O)COCCOCCNC(=O)CC[C@H](NC(=O)CCCCCCCCCCCCCCCCCCC(=O)O)C(=O)O)C(=O)N[C@@H](CC(N)=O)C(=O)N[C@@H]([C@@H](C)O)C(=O)N[C@@H](C)C(=O)N[C@@H]([C@@H](C)O)C(=O)N1)[C@@H](C)O)C(=O)N1CCC[C@H]1C(=O)N[C@@H](CO)C(=O)N[C@@H](CO)C(=O)N[C@H](C(=O)N[C@@H](CC(N)=O)C(=O)N[C@H](C(=O)NCC(=O)N[C@@H](CCCNC(=N)N)C(=O)N[C@@H](CC(N)=O)C(=O)N[C@H](C(=O)N[C@@H](Cc1ccc(O)cc1)C(N)=O)[C@@H](C)O)C(C)C)[C@@H](C)O, also called compound 95)
